Assay results reported in patent US7521047 (GPC BIOTECH, dated 2009).

What was measured:
[1] = molecular target: T1, human MHC class II DR protein (DRA*0101/DRB1*0401), purified from PRIESS cells (human, UniProt P01903 26-254; P01911 30-266, limits assumed); test: SPR (BIAcore), chip density 4000 RU MHCII
T1 construct: mature; also called HLA-DR protein; MHCII
T1 MHC II alpha: not shown
T1 MHC II beta: not shown

[2] = molecular target: HLA-DR on MHH-CALL-4 cells (human); test: cell-based or functional assay
[3] = molecular target: T1, human MHC class II DR protein …; test: BiaCore, Fab
[4] = molecular target: T1, human MHC class II DR protein …; test: BiaCore, Fab
[5] = molecular target: T1, human MHC class II DR protein …; test: SPR (BIAcore), MHCII on CM5 chip
[6] = molecular target: T2, HLA-DR (DRA*0101/DRB1*0401) on PRIESS cells (human, UniProt P01903 26-254; P01911 30-266); test: cell-based or functional assay
T2 MHC II alpha: not shown
T2 MHC II beta: not shown

B1: MS-GPC-8-17 Fab (Fab, V domains shown)
VH: QVQLKESGPALVKPTQTLTLTCTFSGFSLSTSGVGVGWIRQPPGKALEWLALIDWDDDKYYSTSLKTRLTISKDTSKNQVVLTMTNMDPVDTATYYCARSPRYRGAFDYWGQGTLVTVSS
VL: DIVLTQPPSVSGAPGQRVTISCSGSSSNIGSNYVSWYQQLPGTAPKLLIYDNNQRPSGVPDRFSGSKSGTSASLAITGLQSEDEADYYCQSYDFSVYVFGGGTKLTVLG
notes: Fab: VH-CH1 with FLAG tag and STREP tag II, VL-CL; VH residue 1 is Q in Fab; also called 7BA
In the case of B1, the Kd [1] is reported as 54.7 nM, the koff [1] is reported as 0.00548 s⁻¹ and the kon [1] is reported as 100000 M⁻¹ s⁻¹. For the same binder, the “maximum capacity to kill MHH-Call 4 cells” value [2] was 78%, the Kd [3] was 58.6 nM and the koff [3] was 0.00548 s⁻¹. For the same binder, the kon [3] was 96000 M⁻¹ s⁻¹, the “fold affinity improvement compared to MS-GPC-8/B8” value [4] was 5 fold and the Kd [5] was 54.7 nM. For the same binder, the koff [5] was 0.00548 s⁻¹, the kon [5] was 100000 M⁻¹ s⁻¹ and the “EC50 of cell killing, cross-linked Fab, bivalent agent” value [6] was 16 nM.
